Results as given in paper PMC10776578, “Epstein-Barr virus-driven B cell lymphoma mediated by a direct LMP1-TRAF6 complex” (Nature Communications, 2024).
“Also recorded” adds a separate entry of the source.

What was measured:
HA-LMP1 = assay: Confocal immunofluorescence colocalization of Flag-TRAF6 with HA-LMP1 in HeLa cells; format: cell-based, Epstein-Barr virus; details: for colocalization with HA-LMP1 (in words): confocal microscopy; for colocalization of TRAF6 with LMP1, mean: mean of ten cells
Experimental: HeLa cells were seeded onto cover glasses (Thermo Scientific, Menzel) in 24-well plates one day before transfection. Cells were transfected at 50–60% confluency with 50 ng of pCMV-HA-LMP1 plasmids and 100 ng of pRK5-Flag-TRAF6 plasmids, adjusted to a total of 500 ng DNA per sample with pRK5 empty vector, using Lipofectamine 2000 (Thermo Fisher Scientific) according to the manufacturer’s instructions. At 24 h posttransfection, cells were washed once with PBS and fixed with 4% paraformaldehyde (Sigma-Aldrich) for 20 min at RT, followed by permeabilization with 0.3% (v/v) Triton X-100 and blocking with 5% (v/v) FBS in PBS for 1 h at RT. For immunostaining, the cells were incubated overnight with the primary antibodies α-HA (1:1000, clone 16B12, BioLegend) and α-DYKDDDDK (1:1000, clone L5, BioLegend) at 4 °C. The secondary antibodies goat α-mouse Alexa 488 (1:500, cross-adsorbed, Invitrogen, #A-11029) and goat α-rat Alexa 555 (1:500, cross-adsorbed, Invitrogen, #A-21434) were added for 1.5 h at RT. Microscope slides were sealed with cover glasses using Mowiol mounting medium (Sigma-Aldrich). Nuclei were stained with Hoechst 33258 (Sigma-Aldrich). All samples were imaged using a Leica TCS SP5 confocal microscope with 405 nm, 488 nm, 543 nm or 633 nm laser lines, scanning each channel separately under image capture conditions that eliminated channel overlap. For each single experiment, 10 transfected cells positive for both constructs were randomly captured as single-cell images for quantification. The resulting images were then analyzed using the Leica TCS SP5 colocalization analyses application (LAS AF Version 2.7.3.9723). Analysis was performed with default parameters.

[1] = tested on: IκBα in TRAF6^-/- MEFs expressing NGFR-LMP1; assay: IκBα degradation (canonical NF-κB) upon NGFR-LMP1 crosslinking; format: cell-based, mouse; details: IκBα immunoblot
Excerpt: Wild-type MEFs and derivatives thereof, TRAF6^-/- MEFs[79], and HeLa cells (obtained from the German Collection of Microorganisms and Cell Cultures, GCMC) were kept in Dulbecco’s modified Eagle’s medium (DMEM, Thermo Fischer, #41966-029). The cell lines HEK293 (obtained from GCMC), HA-LCL3[31], LCL721[80], BL41[81], LCL.NGFR-LMP1[35], and the mouse lymphomas LMP1-CL 37 and 40 were kept in Roswell Park Memorial Institute medium (RPMI 1640, Thermo Fisher, #21875-034). If not indicated otherwise, DMEM and RMPI were supplemented with 10% of fetal bovine serum (FBS; Sigma, #F7524), 1 mM L-glutamine (Thermo Fisher, #25030-024) and antibiotics (50 U per mL penicilline and 50 µg per mL streptomycin). LCL.NGFR-LMP1 cells were additionally supplemented with 100 nM sodium selenite and crosslinking primary and secondary antibodies (see below). All cells were kept at 37 °C in the presence of 5% CO2. Retroviral transduction of MEFs with NGFR-LMP1 and TRAF6 was carried out with the vectors pSF91-NGFR-LMP1-IRES-GFP-WPRE and pSF91-Flag-TRAF6-IRES-CFP-WPRE expressing TRAF6 wild-type or the indicated TRAF6 mutants. For NGFR-LMP1 crosslinking, 1 µg per mL of α-NGFR primary antibody (clone HB8737, ATTC) was added for 1 h to the cells. signalling was activated by further addition of 10 µg per mL of α-mouse IgG/IgM secondary antibody (Dianova, #115-005-068) for the given time points.
Immunoblotting was essentially performed as described. Proteins were detected on nitrocellulose membranes (Bio-Rad, #1620115) using the following primary antibodies: α−6*His-tag (clone 4A4 or 2F12, source: antibody facility of the Helmholtz Center Munich, hybridoma supernatants were used at a 1:10 dilution)[75], α-TRAF6 (H-274, Santa Cruz Biotech., #sc-7221, used at 1:1000), α-HA-tag (12CA5, Sigma-Aldrich, #11583816001, used at 0.4 µg per mL), α-IκBα (C-21, Santa Cruz Biotech., #sc-371, used at 1:500) and α-Tubulin (B-5-1-2, Santa Cruz Biotech., #sc-23948, used at 1:500). […] ECL signals were captured on X-ray films (Agfa Healthcare) and quantified by densitometry using the ImageJ software. […]

Row | Molecule | colocalization with HA-LMP1 (in words) (HA-LMP1) | colocalization of TRAF6 with LMP1, mean (HA-LMP1) | rescue of canonical NF-κB activation by NGFR-LMP1 (in words) [1]
1 | R392A (protein, UniProt Q9Y4K3 1-522, looked up, variant R392A) TNF receptor-associated …: MSLLNCENSCGSSQSESDCCVAMASSCSAVTKDDSVGGTASTGNLSSSFMEEIQGYDVEFDPPLESKYECPICLMALREAVQTPCGHRFCKACIIKSIRDAGHKCPVDNEILLENQLFPDNFAKREILSLMVKCPNEGCLHKMELRHLEDHQAHCEFALMDCPQCQRPFQKFHINIHILKDCPRRQVSCDNCAASMAFEDKEIHDQNCPLANVICEYCNTILIREQMPNHYDLDCPTAPIPCTFSTFGCHEKMQRNHLARHLQENTQSHMRMLAQAVHSLSVIPDSGYISEVRNFQETIHQLEGRLVRQDHQIRELTAKMETQSMYVSELKRTIRTLEDKVAEIEAQQCNGIYIWKIGNFGMHLKCQEEEKPVVIHSPGFYTGKPGYKLCMALHLQLPTAQRCANYISLFVHTMQGEYDSHLPWPFQGTIRLTILDQSEAPVRQNHEEIMDAKPELLAFQRPTIPRNPKGFGYVTFMHLEALRQRTFIKDDTLLVRCEVSTRFDMGSLRREGFQPRSTDAGV | fail to interact with LMP1 wild-type clusters; also recorded: strongly decreased colocalization with HA-LMP1 | 16.72 | ineffective in rescuing canonical NF-κB activation
2 | Y473A (protein, UniProt Q9Y4K3 1-522, looked up, variant Y473A) TNF receptor-associated …: MSLLNCENSCGSSQSESDCCVAMASSCSAVTKDDSVGGTASTGNLSSSFMEEIQGYDVEFDPPLESKYECPICLMALREAVQTPCGHRFCKACIIKSIRDAGHKCPVDNEILLENQLFPDNFAKREILSLMVKCPNEGCLHKMELRHLEDHQAHCEFALMDCPQCQRPFQKFHINIHILKDCPRRQVSCDNCAASMAFEDKEIHDQNCPLANVICEYCNTILIREQMPNHYDLDCPTAPIPCTFSTFGCHEKMQRNHLARHLQENTQSHMRMLAQAVHSLSVIPDSGYISEVRNFQETIHQLEGRLVRQDHQIRELTAKMETQSMYVSELKRTIRTLEDKVAEIEAQQCNGIYIWKIGNFGMHLKCQEEEKPVVIHSPGFYTGKPGYKLCMRLHLQLPTAQRCANYISLFVHTMQGEYDSHLPWPFQGTIRLTILDQSEAPVRQNHEEIMDAKPELLAFQRPTIPRNPKGFGAVTFMHLEALRQRTFIKDDTLLVRCEVSTRFDMGSLRREGFQPRSTDAGV | fail to interact with LMP1 wild-type clusters; also recorded: strongly decreased colocalization with HA-LMP1 | 24.45 | ineffective in rescuing canonical NF-κB activation
3 | F471A (protein, UniProt Q9Y4K3 1-522, looked up, variant F471A) TNF receptor-associated …: MSLLNCENSCGSSQSESDCCVAMASSCSAVTKDDSVGGTASTGNLSSSFMEEIQGYDVEFDPPLESKYECPICLMALREAVQTPCGHRFCKACIIKSIRDAGHKCPVDNEILLENQLFPDNFAKREILSLMVKCPNEGCLHKMELRHLEDHQAHCEFALMDCPQCQRPFQKFHINIHILKDCPRRQVSCDNCAASMAFEDKEIHDQNCPLANVICEYCNTILIREQMPNHYDLDCPTAPIPCTFSTFGCHEKMQRNHLARHLQENTQSHMRMLAQAVHSLSVIPDSGYISEVRNFQETIHQLEGRLVRQDHQIRELTAKMETQSMYVSELKRTIRTLEDKVAEIEAQQCNGIYIWKIGNFGMHLKCQEEEKPVVIHSPGFYTGKPGYKLCMRLHLQLPTAQRCANYISLFVHTMQGEYDSHLPWPFQGTIRLTILDQSEAPVRQNHEEIMDAKPELLAFQRPTIPRNPKGAGYVTFMHLEALRQRTFIKDDTLLVRCEVSTRFDMGSLRREGFQPRSTDAGV | fail to interact with LMP1 wild-type clusters; also recorded: strongly decreased colocalization with HA-LMP1 | 13.45 | ineffective in rescuing canonical NF-κB activation
